Measurements as given in article PMC11933295, “Inhibiting hedgehog signal by a patched-1 antibody” (Cell Discovery, 2025).

Target: T1, engineered human PTCH1 protein (PTCH1*, a functional PTCH1 variant with two cytosolic loops truncated) (Homo sapiens, stabilised)
T1 chain: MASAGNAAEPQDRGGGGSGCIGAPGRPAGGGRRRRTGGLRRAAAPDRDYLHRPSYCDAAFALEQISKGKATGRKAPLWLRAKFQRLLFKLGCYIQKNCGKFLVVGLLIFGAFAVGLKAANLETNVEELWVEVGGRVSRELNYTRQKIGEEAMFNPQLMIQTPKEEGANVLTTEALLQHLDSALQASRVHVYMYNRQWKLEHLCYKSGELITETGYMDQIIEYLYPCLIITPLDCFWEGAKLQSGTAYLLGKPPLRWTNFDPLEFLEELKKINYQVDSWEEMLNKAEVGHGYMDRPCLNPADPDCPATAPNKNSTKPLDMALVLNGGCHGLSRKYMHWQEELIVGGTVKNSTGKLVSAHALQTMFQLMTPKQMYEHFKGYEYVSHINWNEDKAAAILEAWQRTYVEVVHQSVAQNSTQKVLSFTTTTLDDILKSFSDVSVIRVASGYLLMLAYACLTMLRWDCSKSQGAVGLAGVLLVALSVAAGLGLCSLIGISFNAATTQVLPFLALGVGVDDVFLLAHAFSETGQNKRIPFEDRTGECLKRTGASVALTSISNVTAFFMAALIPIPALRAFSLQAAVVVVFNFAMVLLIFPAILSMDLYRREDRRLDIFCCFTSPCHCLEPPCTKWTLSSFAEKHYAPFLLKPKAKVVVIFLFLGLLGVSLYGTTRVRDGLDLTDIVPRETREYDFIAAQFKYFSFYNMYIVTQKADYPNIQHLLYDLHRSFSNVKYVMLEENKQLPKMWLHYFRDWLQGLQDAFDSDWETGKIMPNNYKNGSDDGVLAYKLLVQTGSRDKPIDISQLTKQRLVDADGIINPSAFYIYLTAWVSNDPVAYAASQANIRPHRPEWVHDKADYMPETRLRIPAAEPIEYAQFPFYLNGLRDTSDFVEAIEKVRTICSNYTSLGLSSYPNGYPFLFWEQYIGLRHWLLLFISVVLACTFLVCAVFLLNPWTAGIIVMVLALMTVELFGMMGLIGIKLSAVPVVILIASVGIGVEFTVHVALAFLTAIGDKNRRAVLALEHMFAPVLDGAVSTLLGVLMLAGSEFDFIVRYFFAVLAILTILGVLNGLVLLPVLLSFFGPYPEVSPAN
Assay: cell-based or functional assay

IC50 of the dose-dependent inhibition of HH signaling, Dual-Luciferase Reporter Assay in SHH-Light II cells; pair blocked: SHH with PTCH1: ~77.8 nM
B1: Fab^6H3 (Fab, V domains shown)
VH: EVQLVESGGGLVKPGGSRKLSCVASGFTLSDYGMHWVRQAPEKGLEWVAYIGSDSYTIYHADTMKGRFTISRDNAKNTLFLQMTSLRSEDTAMYYCGRNYGMDYWGQGTS
VL: VLTQSPAIMSASLGERVTLTCTASSSVTSSYLHWYQQKPGSSPKLWIYSTSNLPFGVSPRFSGSGSGTSFSLTISSMEAEDAATYYCHQFHRSPYTFGGGTK
